In WO2005092925A2 one finds Fold WT data, which are given here for 37 substances.

Among the targets are human FcRn (human) (UniProt P55899); human FcγRI (human) (UniProt P12314); human FcγRIIc (human) (UniProt P31995); human FcγRIIb (human) (UniProt P31994).
Common to all, as to experiment: AlphaScreen
(In general: Bead proximity is the source of the signal in Alpha formats.)

For test [1], the target named is human FcγRIIa H131 (human) (UniProt P12318).
In test [2] the target is human V158 FcγRIIIa, extracellular region fused with GST (human) (UniProt P08637).
Chain of UniProt P08637 (P08637 17-208 F176V): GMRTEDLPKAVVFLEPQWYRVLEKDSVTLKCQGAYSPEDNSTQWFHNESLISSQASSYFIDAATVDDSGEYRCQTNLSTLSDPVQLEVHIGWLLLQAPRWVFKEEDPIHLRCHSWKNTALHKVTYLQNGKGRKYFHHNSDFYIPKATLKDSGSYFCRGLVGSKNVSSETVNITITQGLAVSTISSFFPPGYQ

Chain of UniProt P12314 (P12314 16-288 limits assumed): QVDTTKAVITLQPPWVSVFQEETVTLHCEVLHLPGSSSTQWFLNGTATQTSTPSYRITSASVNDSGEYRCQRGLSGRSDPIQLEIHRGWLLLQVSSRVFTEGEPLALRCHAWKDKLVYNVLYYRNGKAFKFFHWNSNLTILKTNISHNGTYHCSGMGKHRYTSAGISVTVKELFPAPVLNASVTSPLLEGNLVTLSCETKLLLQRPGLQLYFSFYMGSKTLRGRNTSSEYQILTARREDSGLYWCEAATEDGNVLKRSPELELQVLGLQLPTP
Chain of UniProt P12318 (P12318 36-218 limits assumed): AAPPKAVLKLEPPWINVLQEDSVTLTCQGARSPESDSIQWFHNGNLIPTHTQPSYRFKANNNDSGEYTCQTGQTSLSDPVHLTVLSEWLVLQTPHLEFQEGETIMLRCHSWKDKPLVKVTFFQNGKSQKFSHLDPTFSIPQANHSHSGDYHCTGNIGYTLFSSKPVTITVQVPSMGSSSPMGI
Chain of UniProt P55899 (P55899 24-297 limits assumed): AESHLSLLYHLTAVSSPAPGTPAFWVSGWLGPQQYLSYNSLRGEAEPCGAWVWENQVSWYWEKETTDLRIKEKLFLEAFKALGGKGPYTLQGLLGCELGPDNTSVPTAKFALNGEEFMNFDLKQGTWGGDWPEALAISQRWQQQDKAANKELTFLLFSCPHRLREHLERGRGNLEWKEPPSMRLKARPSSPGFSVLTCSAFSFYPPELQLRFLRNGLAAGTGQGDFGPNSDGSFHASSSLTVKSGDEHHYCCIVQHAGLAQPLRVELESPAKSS
Chain of UniProt P31994 (P31994 43-217 limits assumed): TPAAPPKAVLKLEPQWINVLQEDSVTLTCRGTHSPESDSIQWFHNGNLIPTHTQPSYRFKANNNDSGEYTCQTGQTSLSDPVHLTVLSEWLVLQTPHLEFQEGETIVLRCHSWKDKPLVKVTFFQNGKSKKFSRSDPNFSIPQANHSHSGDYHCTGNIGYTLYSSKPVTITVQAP
Chain of UniProt P31995 (P31995 43-217 limits assumed): as the sequence (P31994 43-217 limits assumed) above

On to Campath A231K (antibody), for which the Fold WT with human FcRn (human) is 0.52 fold; in the test with human FcγRI (human), 0.5 fold; in test [1], 0.62 fold; with human FcγRIIc (human), 0.58 fold; in the test with human FcγRIIb (human), 0.41 fold; in test [2], 0.58 fold.
Campath D221K (antibody): the Fold WT in the test with human FcRn (human) was determined as 5.66 fold; with human FcγRI (human), 4.53 fold; in test [1] it was 4.32 fold; with human FcγRIIc (human), 17.8 fold; with human FcγRIIb (human), 3.5 fold; in test [2] it was 65.6 fold.
Consider Campath E233A (antibody), for which the Fold WT with human FcRn (human) was 0.93 fold; in the test with human FcγRI (human), 0.1 fold; in test [1], 1.23 fold; in the test with human FcγRIIc (human), 0.71 fold; in the test with human FcγRIIb (human) it was 0.6 fold; in test [2], 0.46 fold.
Regarding Campath E233F (antibody), the Fold WT came out at 0.9 fold with human FcRn (human); 0.23 fold with human FcγRI (human); 0.64 fold in test [1]; 0.84 fold with human FcγRIIc (human); 0.73 fold with human FcγRIIb (human); 0.58 fold in test [2].
As to Campath E233G (antibody), the Fold WT with human FcRn (human) was determined as 2.09 fold; in the test with human FcγRI (human) it was 0.36 fold; in test [1], 1.21 fold; with human FcγRIIc (human) it was 0.74 fold; in the test with human FcγRIIb (human), 0.94 fold; in test [2], 1.21 fold.
Take Campath E233H (antibody): the Fold WT with human FcRn (human) came out at 0.99 fold; with human FcγRI (human), 0.17 fold; in test [1], 0.74 fold; with human FcγRIIc (human), 0.78 fold; with human FcγRIIb (human), 0.58 fold; in test [2], 0.32 fold.
For Campath E233I (antibody), the Fold WT amounted to 0.95 fold with human FcRn (human); 0.3 fold with human FcγRI (human); 1.09 fold in test [1]; 1.8 fold with human FcγRIIc (human); 1.69 fold in the test with human FcγRIIb (human); 0.88 fold in test [2].
Consider Campath E233L (antibody), for which the Fold WT worked out at 0.6 fold with human FcRn (human); 0.53 fold in the test with human FcγRI (human); 0.55 fold in test [1]; 0.54 fold in the test with human FcγRIIc (human); 0.26 fold with human FcγRIIb (human); 0.52 fold in test [2].
As for Campath E233M (antibody), the Fold WT with human FcRn (human) is 1.13 fold; with human FcγRI (human), 0.29 fold; in test [1], 0.67 fold; with human FcγRIIc (human), 0.85 fold; with human FcγRIIb (human) it was 0.49 fold; in test [2], 0.7 fold.
Consider Campath E233N (antibody), for which the Fold WT with human FcRn (human) stood at 0.74 fold; with human FcγRI (human), 0.16 fold; in test [1] it was 0.5 fold; in the test with human FcγRIIc (human), 0.46 fold; in the test with human FcγRIIb (human) it was 0.34 fold; in test [2], 0.48 fold.
With Campath E233Q (antibody), the Fold WT with human FcRn (human) turned out to be 0.61 fold; with human FcγRI (human), 0.19 fold; in test [1] it was 0.52 fold; with human FcγRIIc (human), 0.39 fold; with human FcγRIIb (human), 0.27 fold; in test [2], 0.51 fold.
Take Campath E233R (antibody): the Fold WT is 1.05 fold with human FcRn (human); 0.14 fold with human FcγRI (human); 0.75 fold in test [1]; 0.6 fold with human FcγRIIc (human); 0.36 fold in the test with human FcγRIIb (human); 0.35 fold in test [2].
Consider Campath E233S (antibody), for which the Fold WT was determined as 1.1 fold in the test with human FcRn (human); 0.17 fold with human FcγRI (human); 0.62 fold in test [1]; 0.37 fold in the test with human FcγRIIc (human); 0.31 fold with human FcγRIIb (human); 0.36 fold in test [2].
Take Campath E233T (antibody): the Fold WT worked out at 1.19 fold with human FcRn (human); 0.15 fold with human FcγRI (human); 1.28 fold in test [1]; 0.83 fold with human FcγRIIc (human); 0.78 fold with human FcγRIIb (human); 0.42 fold in test [2].
Turning to Campath E233V (antibody), the Fold WT stood at 0.91 fold in the test with human FcRn (human); 0.25 fold with human FcγRI (human); 0.71 fold in test [1]; 0.61 fold with human FcγRIIc (human); 0.37 fold with human FcγRIIb (human); 0.5 fold in test [2].
Campath E233W (antibody): the Fold WT in the test with human FcRn (human) worked out at 1.64 fold; with human FcγRI (human), 0.28 fold; in test [1], 0.86 fold; in the test with human FcγRIIc (human), 0.7 fold; with human FcγRIIb (human), 0.82 fold; in test [2], 0.35 fold.
In the case of Campath G236A (antibody), the Fold WT with human FcRn (human) was found to be 1.75 fold; in the test with human FcγRI (human), 0.48 fold; in test [1], 45 fold; in the test with human FcγRIIc (human) it was 1.45 fold; in the test with human FcγRIIb (human), 1.05 fold; in test [2] it was 0.65 fold.
Campath G236D (antibody): the Fold WT amounted to 1.53 fold with human FcRn (human); 0.15 fold with human FcγRI (human); 5.01 fold in test [1]; 4.74 fold in the test with human FcγRIIc (human); 3.77 fold with human FcγRIIb (human).
Turning to Campath G236M (antibody), the Fold WT came out at 1.6 fold with human FcRn (human); 0.34 fold in test [1]; 0.4 fold with human FcγRIIc (human); 0.79 fold with human FcγRIIb (human); 0.19 fold in test [2].
Turning to Campath G236P (antibody), the Fold WT in the test with human FcRn (human) came out at 1.41 fold; in the test with human FcγRI (human), 0.15 fold; in test [1] it was 0.11 fold; with human FcγRIIc (human) it was 0.15 fold; with human FcγRIIb (human), 0.24 fold; in test [2], 0.1 fold.
For the substance Campath G236S (antibody), the Fold WT was determined as 1.77 fold with human FcRn (human); 0.55 fold with human FcγRI (human); 22.7 fold in test [1]; 3.68 fold with human FcγRIIc (human); 2.77 fold with human FcγRIIb (human); 5.77 fold in test [2].
For the substance Campath G236T (antibody), the Fold WT with human FcRn (human) came to 1.56 fold; in test [1], 1.89 fold; with human FcγRIIc (human) it was 0.48 fold; with human FcγRIIb (human) it was 0.95 fold.
Regarding Campath G236V (antibody), the Fold WT in the test with human FcRn (human) worked out at 1.35 fold; with human FcγRI (human), 0.14 fold; in test [1] it was 1.52 fold; in the test with human FcγRIIc (human) it was 0.47 fold; with human FcγRIIb (human) it was 0.82 fold; in test [2], 0.27 fold.
Take Campath G236W (antibody): the Fold WT with human FcRn (human) turned out to be 1.52 fold; in the test with human FcγRI (human), 0.78 fold; in test [1], 2.13 fold; in the test with human FcγRIIc (human) it was 0.29 fold; with human FcγRIIb (human), 0.7 fold; in test [2] it was 0.29 fold.
On to Campath K222E (antibody), for which the Fold WT with human FcRn (human) amounted to 0.64 fold; with human FcγRI (human), 1.77 fold; in test [1], 1.26 fold; with human FcγRIIc (human), 1.22 fold; in the test with human FcγRIIb (human), 1.04 fold; in test [2], 1.51 fold.
As for Campath K222Y (antibody), the Fold WT with human FcRn (human) turned out to be 0.66 fold; in the test with human FcγRI (human), 0.77 fold; in test [1], 0.48 fold; with human FcγRIIc (human), 0.34 fold; in the test with human FcγRIIb (human), 0.5 fold; in test [2], 0.34 fold.
Consider Campath L234A (antibody), for which the Fold WT was determined as 0.58 fold with human FcRn (human); 0.44 fold in the test with human FcγRI (human); 0.8 fold in test [1]; 0.62 fold with human FcγRIIc (human); 0.85 fold with human FcγRIIb (human); 0.35 fold in test [2].
For Campath L234G (antibody), the Fold WT is 2.54 fold with human FcRn (human); 0.7 fold with human FcγRI (human); 3.26 fold in test [1]; 3.48 fold with human FcγRIIc (human); 3.62 fold in the test with human FcγRIIb (human); 2.17 fold in test [2].
For the substance Campath L234K (antibody), the Fold WT with human FcRn (human) was 0.62 fold; in the test with human FcγRI (human), 0.43 fold; in test [1], 0.65 fold; with human FcγRIIc (human), 1.09 fold; in the test with human FcγRIIb (human) it was 1.42 fold; in test [2], 0.53 fold.
As to Campath L234M (antibody), the Fold WT with human FcRn (human) was found to be 0.55 fold; with human FcγRI (human) it was 0.64 fold; in test [1] it was 0.89 fold; with human FcγRIIc (human) it was 0.65 fold; in the test with human FcγRIIb (human), 0.9 fold; in test [2], 0.49 fold.
Turning to Campath L234R (antibody), the Fold WT was 1.19 fold in the test with human FcRn (human); 0.38 fold with human FcγRI (human); 0.87 fold in test [1]; 1.52 fold with human FcγRIIc (human); 1.49 fold with human FcγRIIb (human); 0.73 fold in test [2].
With Campath L235A (antibody), the Fold WT is 0.97 fold with human FcRn (human); 0.34 fold with human FcγRI (human); 0.62 fold in test [1]; 0.78 fold in the test with human FcγRIIc (human); 0.84 fold with human FcγRIIb (human); 0.41 fold in test [2].
As for Campath L235E (antibody), the Fold WT with human FcRn (human) is 0.78 fold; with human FcγRI (human), 0.34 fold; in test [1], 0.63 fold; with human FcγRIIc (human), 0.8 fold; with human FcγRIIb (human) it was 0.83 fold; in test [2], 1.06 fold.
In the case of Campath L235K (antibody), the Fold WT with human FcRn (human) was found to be 0.96 fold; with human FcγRI (human) it was 0.42 fold; in test [1], 0.56 fold; with human FcγRIIc (human), 1.34 fold; with human FcγRIIb (human) it was 1.28 fold; in test [2] it was 0.63 fold.
Turning to Campath L235M (antibody), the Fold WT is 0.69 fold with human FcRn (human); 0.38 fold with human FcγRI (human); 0.79 fold in test [1]; 0.64 fold with human FcγRIIc (human); 0.89 fold in the test with human FcγRIIb (human); 0.46 fold in test [2].
Consider Campath L235P (antibody), for which the Fold WT was found to be 0.86 fold in the test with human FcRn (human); 0.13 fold with human FcγRI (human); 1.16 fold in test [1]; 0.89 fold with human FcγRIIc (human); 1.16 fold with human FcγRIIb (human); 0.78 fold in test [2].
As to Campath P230E (antibody), the Fold WT in the test with human FcRn (human) turned out to be 1.01 fold; with human FcγRI (human), 2.07 fold; in test [1] it was 1.25 fold; with human FcγRIIc (human), 1.47 fold; with human FcγRIIb (human), 2.34 fold.
